Data on one molecule can be found in publication doi:10.1101/2024.01.31.578278.

This data set addresses cytochrome c (CytC), recombinant human (human, UniProt P99999 1-105). The experiment in a line: electrochemical aptasensor.

cytochrome c (CytC), recombinant human, sequence (P99999 whole entry): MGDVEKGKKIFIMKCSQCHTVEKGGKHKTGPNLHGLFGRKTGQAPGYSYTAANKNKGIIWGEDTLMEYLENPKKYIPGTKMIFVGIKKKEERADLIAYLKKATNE

In general, Kd refers to the constant that tells how readily two partners part at equilibrium. In the case of CCGTGTCTGGGGCCGACCGGCGCATTGGGTACGTTGTTGC (ssDNA, 5' thiol C6 (ThioMC6-D, disulfide reduced); 3' amino modifier (AmMO)) [CytC aptamer], the Kd turned out to be 6.19 ± 1.57 ng/mL.
